Measured values as given in patent US6475791B1, “Uses for DNA structure-specific recognition protein” (Massachusetts Institute of Technology, priority 1988, dated 2002).

Tests used:
[1] = tested on: h-mtTFA (mitochondrial transcription factor A) (Homo sapiens); test: inhibition
HMG1 = test: inhibition; details: cisplatin 1,2-d(GpG) intrastrand crosslink; inhibition of excision repair by HeLa CFE at 1 uM HMG1 (20% at 0.5 uM); 8 mM MgCl2, 2 mM ATP, 30 C
[2] = tested on: cellular SSRP in human (HeLa) and hamster (V79) cell extracts; details: cited from earlier work
[3] = tested on: cisplatin 1,3-d(GTG) intrastrand adduct (1,3-GTG), excision by human excinuclease; test: Exinuclease excision repair of the 1,3-intrastrand cisplatin lesion by HeLa cell-free extract, with or without HMG-box protein; type: biochemical; details: for percent inhibition of repair, 1,3-GTG adduct: 30 min, 30° C, average of two experiments
Procedure: (§1) Exinuclease substrates with defined cisplatin lesions Nucleic acid fragments (oligomers) bearing a 1,2-d(G^G) or a 1,3-d(GTG) cisplatin crosslink at a defined site were prepared essentially according to the method of Shi et al. (1987), 15 Nucleic Acids Res. 6843, by ligation of a mixture of a cisplatin-lesioned dodecamer with seven other oligonucleotides to produce 156 bp fragments. Prior to ligation, lesioned dodecamers were labeled with [γ-^32P]ATP such that the detectable radiolabel would be located at the 4th phosphodiester bond 5′ to the 1,3-intrastrand d(GTG) lesion, or the 5th phosphodiester bond 5′ to the 1,2-intrastrand d(G^G) lesion. Thus, the radiolabel would be included in the 27-29 nucleotide fragment spanning the cisplatin lesion that would be released by exinuclease. Full length (156 bp) exinuclease substrate oligomers were isolated on a 5% polyacrylamide/8 M urea denaturing gel and reannealed.
(§2) Exinuclease reaction. The excision reaction buffer contained 40 mM Hepes, pH 7.9, 80 mM KCl, 8 mM MgCl2, 2 mM ATP, 20 μM of each dNTP, 1 mM dithiothreitol, 0.3 mM EDTA, 6.8% (v/v) glycerol, and 200 μg/ml bovine serum albumin. The reaction mixture (50 μl) contained 100 μg of CFE (in cases of complementation, 50 μg of each of the XP CFE) and 30 pM DNA substrate (specific activity 7000 Ci/mmol), plus 250 ng pBR322 as carrier DNA. The excision reaction was carried out varying lengths of time at 30° C. Following proteinase K digestion, DNA exinuclease reaction products were extracted by phenol/chloroform and precipitated with ethanol. Equal amounts of DNA were loaded onto each lane.
(§3) The radiolabeled substrates bearing specific 1,2- and 1,3-intrastrand cisplatin lesions and the HeLa cell-free extract described above in Example 1 were used.
(§4) Gel Mobility Shift Assay. The 25 μl reaction mixtures contained 30 pM substrate and 0, 1, 2, 4 or 8 μM HMG1. Mixtures were incubated at 30° C. for 10 min. Samples (1.5 μl) of the mixtures were withdrawn and adjusted to 15% (v/v) glycerol, and electrophoretically resolved on a 5% native polyacrylamide gel. Results were visualized by autoradiography.
(§5) Exinuclease reaction in the presence of HMG1. Following withdrawal of the above samples for gel mobility shift analysis, 50 μg of HeLa CFE was added to each of the reaction mixtures and incubation was continued for 30 min at 30° C. as described in Example 1. Reactions were stopped and DNA reaction products were retrieved and analyzed as described in Example 2.
(§6) An exinuclease inhibition study was carried out generally as described in Example 3, using 0, 0.5 or 1.0 μM concentrations of HMG1 or h-mtTFA in parallel incubations.

[4] = tested on: yeast ixr-1 null mutant strain; details: Brown et al. (1993); cited from earlier work
[5] = tested on: cisplatin 1,2-d(G^G) intrastrand adduct (1,2-GG), excision by human excinuclease; test: Exinuclease excision repair of the 1,2-intrastrand cisplatin lesion by HeLa cell-free extract, with or without HMG-box protein; type: biochemical; details: for percent inhibition of repair, 1,2-GG adduct: 30 min, 30° C, average of two experiments
Procedure: as §1, §2, §3, §4, §5, §6

[6] = 90 min, HeLa CFE, no inhibitor, over 20 independent assays

## 156 bp duplex with site-specific cisplatin 1,2-d(GpG) intrastrand crosslink
[1]; cisplatin 1,2-d(GpG) intrastrand crosslink, inhibition of excision repair at 0.5 uM h-mtTFA (100% at 1 uM)
  activity: 95 % inhibition
HMG1
  activity: 40 % inhibition

## 156 bp duplex with site-specific cisplatin 1,3-d(GTG) intrastrand crosslink
[1]; cisplatin 1,3-d(GpTpG) intrastrand crosslink, inhibition of excision repair at 1 uM h-mtTFA (40% at 0.5 uM)
  activity: 75 % inhibition

## [Cl-].[NH-]CC[N-]CC[NH-].[Pt+4] [chloro(diethylenetriamine)platinum(II)]
[2]
  cellular SSRP binding to double stranded probe DNA bearing lesions produced by the compound: did not bind

## NC1CCCCC1N.[Cl][Pt][Cl] (stereo not drawn) [cis-dichloro(1,2-diaminocyclohexane)platinum(II)]
[2]
  cellular SSRP binding to double stranded probe DNA bearing lesions produced by the compound: bound

## NCCN.[Cl][Pt][Cl] [cis-dichloro(ethylenediamine)platinum(II)]
[2]
  cellular SSRP binding to double stranded probe DNA bearing lesions produced by the compound: bound

## N.N.[Cl][Pt][Cl] [cisplatin, cis-diamminedichloroplatinum(II), reference compound]
[3]; [6]
  range of excision of the 1,3-d(GTG) crosslink: 2.3-8%
[2]
  cellular SSRP binding to double stranded probe DNA bearing lesions produced by the compound: bound
[4]
  sensitivity of ixr-1 null yeast to cisplatin killing relative to parent (wildtype Ixr-1) strain: two-fold less sensitive
[5]; [6]
  range of excision of the 1,2-d(G^G) crosslink: 1-8%

## N.N.[Cl][Pt+2][Cl] [transplatin]
[2]
  cellular SSRP binding to double stranded probe DNA bearing lesions produced by the compound: did not bind

B1: HMG1: Recombinant HMG1 protein purified from an E. coli overproducing strain; HMG domain protein (protein, UniProt P09429 1-215, looked up)
High mobility group protein B1: MGKGDPKKPRGKMSSYAFFVQTCREEHKKKHPDASVNFSEFSKKCSERWKTMSAKEKGKFEDMAKADKARYEREMKTYIPPKGETKKKFKDPNAPKRPPSAFFLFCSEYRPKIKGEHPGLSIGDVAKKLGEMWNNTAADDKQPYEKKAAKLKEKYEKDIAAYRAKGKPDAAKKGVVKAEKSKKKKEEEEDEEDEEDEEEEEDEEDEDEEEDDDDE
[3]; 0.5 μM protein, HeLa CFE
  percent inhibition of repair, 1,3-GTG adduct: 0%
[3]; 1 μM protein, HeLa CFE
  percent inhibition of repair, 1,3-GTG adduct: 0%
[3]; HMG1 concentrations up to about 4 μM, inhibited at higher concentrations, FIG. 5
  effect on excision of the 1,3-crosslink: modestly stimulated
[5]; 1 μM protein, HeLa CFE
  percent inhibition of repair, 1,2-GG adduct: 40%
[5]; escalating concentrations of purified HMG1 (0-8 μM), FIG. 5
  effect on excision of the cisplatin 1,2-intrastrand crosslink: monotonically inhibited

B2: h-mtTFA: human mitochondrial transcription factor A, an HMG domain protein (protein, UniProt Q00059 43-246, looked up)
Transcription factor A, …: SSVLASCPKKPVSSYLRFSKEQLPIFKAQNPDAKTTELIRRIAQRWRELPDSKKKIYQDAYRAEWQVYKEEISRFKEQLTPSQIMSLEKEIMDKHLKRKAMTKKKELTLLGKPKRPRSAYNVYVAERFQEAKGDSPQEKLKTVKENWKNLSDSEKELYIQHAKEDETRYHNEMKSWEEQMIEVGRKDLLRRTIKKQRKYGAEEC
[3]; 0.5 μM protein, HeLa CFE
  percent inhibition of repair, 1,3-GTG adduct: 40%
[3]; 1 μM protein, HeLa CFE
  percent inhibition of repair, 1,3-GTG adduct: 75%
[5]; 0.5 μM protein, HeLa CFE
  percent inhibition of repair, 1,2-GG adduct: 95%
[5]; 1 μM protein, HeLa CFE
  percent inhibition of repair, 1,2-GG adduct: 100%
